Test [1] has as its target T1, PTPRG, endogenous in H929 multiple myeloma cells (human, UniProt P23470 20-1445).
T1 construct: Native protein on H929 cells (flow cytometry, siRNA knockdown) and in H929 lysates (IP/MS); also called phosphatase receptor type γ
In words: flow cytometry, H929 + PTPRG siRNA (target knocked down); None 2.13. The protocol: Recombinant purified ECDs (50-150 ng) of each putative target protein were coated, incubated with 150 ng of the indicated primary antibody, and binding was detected using a peroxidase-conjugated anti-human Fab secondary antibody. Heatmap represents averages of technical triplicates. (8B) Target validation via siRNA knockdown. H929 cells were transfected with siRNA pools targeting the putative antibody targets ICAM1, CADM1, and PTPRG. Cells were then subjected to cognate IgG binding analysis via flow cytometry. (NT, non-targeting siRNA).
(§1) Staining protocol. Cells were harvested (5×10⁴ cells per sample), washed once with phosphate-buffered saline (PBS) at RT, and a second time with ice-cold FACS buffer (PBS, 0.5% BSA, 2 mM EDTA, 0.1% NaN₃). Cells were stained in 50 μL of primary antibody for 30 min on ice, washed twice with 100 μL FACS buffer, stained with 50 μL of diluted secondary antibody, washed two more times in FACS, and then resuspended in 50 μL FACS buffer. Samples were acquired on an Accuri C6 Plus or a BD FACSCanto II flow cytometer (both from BD Biosciences). Data were analyzed using FlowJo version 10 software. Primary antibodies: Fab (10 μg/mL), IgG1 (0.1 to 50 μg/mL), or 25 μL polyclonal Fabs from periplasmic extracts. Polyclonal Fabs were produced by diluting bacterial stocks by a factor of 100 in autoinduction media and incubating overnight to induce expression as previously described. […] Viability stains: DAPI (Cell Signaling Technology) or SYTOX AADvanced Dead Cell Stain (Thermo Fisher Scientific). Labeling: The panel of chimeric rabbit/human IgG1s was labeled using the Alexa Fluor 647 Labeling Kit (Thermo Fisher Scientific, #A20173) to facilitate single-step staining. Competition: Unlabeled IgG1s were added at saturating concentrations of 60 μg/mL to block the target receptors, incubating on ice for 30 min, followed by the addition of an equal volume of the Alexa Fluor 647 labeled antibody at 2 μg/mL, and the mixture was incubated on ice for another 30 min.
A general note: A flow cytometer gives signals particle by particle.

Test [2] deals with T2, ICAM1, endogenous in H929 multiple myeloma cells (human, UniProt P05362 28-532).
T2 construct: Native protein on H929 cells (flow cytometry, siRNA knockdown) and in H929 lysates (IP/MS); also called CD54
T2 sequence (P05362 28-532 limits assumed): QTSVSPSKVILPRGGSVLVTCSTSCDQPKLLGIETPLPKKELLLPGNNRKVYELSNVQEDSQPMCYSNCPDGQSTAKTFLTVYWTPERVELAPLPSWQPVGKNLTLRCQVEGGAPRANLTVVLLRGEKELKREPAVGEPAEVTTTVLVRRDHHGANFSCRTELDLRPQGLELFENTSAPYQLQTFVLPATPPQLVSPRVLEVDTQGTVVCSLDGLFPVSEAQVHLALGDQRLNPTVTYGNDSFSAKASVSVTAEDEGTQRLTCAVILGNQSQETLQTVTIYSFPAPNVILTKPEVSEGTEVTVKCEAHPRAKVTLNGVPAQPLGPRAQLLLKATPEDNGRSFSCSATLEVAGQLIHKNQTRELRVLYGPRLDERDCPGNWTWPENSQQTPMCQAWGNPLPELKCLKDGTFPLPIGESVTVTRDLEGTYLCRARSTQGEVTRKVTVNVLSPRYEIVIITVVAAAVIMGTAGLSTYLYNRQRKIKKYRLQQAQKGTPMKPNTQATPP
Put plainly: flow cytometry, H929 + vehicle; None 2.74.

For test [3], the target named is T3, CADM1, endogenous in H929 multiple myeloma cells (human, UniProt Q9BY67 45-442).
T3 construct: Native protein on H929 cells (flow cytometry, siRNA knockdown) and in H929 lysates (IP/MS); RPMI-8226 cells were used for sorting with HW-97; also called IGSF4A
T3 sequence: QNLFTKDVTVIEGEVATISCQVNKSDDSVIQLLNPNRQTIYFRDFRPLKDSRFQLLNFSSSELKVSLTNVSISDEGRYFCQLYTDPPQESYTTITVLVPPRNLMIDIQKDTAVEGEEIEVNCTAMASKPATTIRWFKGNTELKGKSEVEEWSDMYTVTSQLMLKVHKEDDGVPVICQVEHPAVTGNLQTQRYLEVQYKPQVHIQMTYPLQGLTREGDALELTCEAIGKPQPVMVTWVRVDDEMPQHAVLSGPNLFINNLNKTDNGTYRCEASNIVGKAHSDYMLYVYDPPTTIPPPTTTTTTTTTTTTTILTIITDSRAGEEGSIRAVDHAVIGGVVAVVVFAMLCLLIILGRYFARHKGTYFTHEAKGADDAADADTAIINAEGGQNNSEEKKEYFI
In words: flow cytometry, H929 + NT Green siRNA; None 416.

Test [4] concerns the target T3, CADM1, endogenous in H929 multiple …. In words: flow cytometry, H929 + ICAM1 siRNA; None 1.06.
The next test deals with T4, CADM1 on RPMI-8226 cells (human, UniProt Q9BY67).
T4 sequence (single chain, looked up): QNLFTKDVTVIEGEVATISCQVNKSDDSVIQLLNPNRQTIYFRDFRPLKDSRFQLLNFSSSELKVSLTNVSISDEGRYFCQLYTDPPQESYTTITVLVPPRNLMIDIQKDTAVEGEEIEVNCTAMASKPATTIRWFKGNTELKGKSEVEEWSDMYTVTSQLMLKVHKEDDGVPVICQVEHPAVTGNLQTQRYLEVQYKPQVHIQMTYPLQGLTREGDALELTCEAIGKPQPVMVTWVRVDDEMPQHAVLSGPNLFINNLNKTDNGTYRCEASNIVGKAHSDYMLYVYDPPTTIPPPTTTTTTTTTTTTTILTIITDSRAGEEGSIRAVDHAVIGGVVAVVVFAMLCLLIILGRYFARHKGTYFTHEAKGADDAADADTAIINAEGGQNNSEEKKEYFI
Put plainly: flow cytometry, IgG1 on RPMI-8226 cells. On the procedure:
as §1

Test [5] deals with T3, CADM1, endogenous in H929 multiple …. In words: flow cytometry, H929 + NT Green siRNA; None 1.35.

Experimental findings from US20260049134A1 (UNIVERSITY OF FLORIDA RESEARCH FOUNDATION, published 2026) are described below.

T1 sequence (P23470 20-1445 limits assumed): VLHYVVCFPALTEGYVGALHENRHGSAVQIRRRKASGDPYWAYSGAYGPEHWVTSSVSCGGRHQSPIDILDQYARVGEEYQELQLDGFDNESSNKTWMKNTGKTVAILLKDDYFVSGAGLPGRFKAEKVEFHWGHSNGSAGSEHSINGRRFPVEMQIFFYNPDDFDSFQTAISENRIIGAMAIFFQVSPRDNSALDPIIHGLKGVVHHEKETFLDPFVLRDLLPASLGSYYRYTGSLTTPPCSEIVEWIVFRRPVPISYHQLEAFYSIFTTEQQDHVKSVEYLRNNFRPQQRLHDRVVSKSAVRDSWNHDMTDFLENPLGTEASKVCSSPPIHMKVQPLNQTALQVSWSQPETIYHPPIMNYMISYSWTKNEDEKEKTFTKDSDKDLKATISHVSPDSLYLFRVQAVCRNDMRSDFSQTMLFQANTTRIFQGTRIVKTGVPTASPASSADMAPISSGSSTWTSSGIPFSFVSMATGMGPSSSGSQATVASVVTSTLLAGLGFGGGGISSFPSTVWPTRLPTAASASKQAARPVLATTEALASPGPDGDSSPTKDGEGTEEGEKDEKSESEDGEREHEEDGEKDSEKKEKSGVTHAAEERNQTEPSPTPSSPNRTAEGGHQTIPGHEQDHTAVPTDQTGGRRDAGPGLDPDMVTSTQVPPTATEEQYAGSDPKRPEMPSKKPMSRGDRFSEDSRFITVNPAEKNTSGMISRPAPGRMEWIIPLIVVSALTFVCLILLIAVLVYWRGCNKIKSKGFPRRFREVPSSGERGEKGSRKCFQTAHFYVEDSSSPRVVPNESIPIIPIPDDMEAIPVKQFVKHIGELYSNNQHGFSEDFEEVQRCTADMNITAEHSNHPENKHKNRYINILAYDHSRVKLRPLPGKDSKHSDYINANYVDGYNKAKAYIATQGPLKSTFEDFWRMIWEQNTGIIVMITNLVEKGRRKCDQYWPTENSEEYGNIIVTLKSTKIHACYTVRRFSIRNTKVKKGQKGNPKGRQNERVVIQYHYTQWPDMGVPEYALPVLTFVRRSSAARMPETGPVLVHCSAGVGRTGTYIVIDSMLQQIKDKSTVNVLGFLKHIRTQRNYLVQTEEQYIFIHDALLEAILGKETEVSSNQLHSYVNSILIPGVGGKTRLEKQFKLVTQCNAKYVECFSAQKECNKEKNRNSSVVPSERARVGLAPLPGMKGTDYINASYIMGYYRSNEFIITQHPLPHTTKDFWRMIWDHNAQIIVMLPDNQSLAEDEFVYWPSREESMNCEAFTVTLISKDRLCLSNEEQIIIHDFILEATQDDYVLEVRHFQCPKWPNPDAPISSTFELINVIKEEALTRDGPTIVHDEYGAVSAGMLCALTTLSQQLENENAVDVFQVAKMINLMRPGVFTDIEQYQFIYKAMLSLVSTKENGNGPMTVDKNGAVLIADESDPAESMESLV

B1: HW-42 chimeric rabbit-human IgG1 LA/LA/PG (antibody, V domains shown)
VH: QSVKESEGGLFKPADTLTLTCTVSGFSLSSNEISWVRQAPGEGLEYIGIIDTGGRAYYAVWARSRSTITRNTNLNTVTLKMTSLTAADTATYFCARGGVDTEWYAFSSWGPGTLVTVPS
VL: SFVLTQPASVQVNLGQTVSLTCTADTLSRRYASWYQQKPGQAPVLLIFRDTSRPSGVPDRFSGSSSGDTATLTISGAQAGDEADYYCATSDGSGSNYQYVFGGGTQLTVTG
notes: Fc-silenced (L234A/L235A/P329G) IgG1, lambda; Alexa Fluor 647-labeled in single-step flow cytometry; Cluster C-1
In the case of B1, in test [1], the “Cells stained (%)” value is 0.55%.

B2: HW-113 chimeric rabbit-human IgG1 LA/LA/PG (antibody, V domains shown)
VH: QKQLVESGGGLVQPGGSLTLTCTVSGFSLNKYYMGWFRQAPGKGLEWIGVISRSGDTYYSSWAKGRFTISKASTTVDLRITSPTTEDTATYFCARDASSPGFHGDRLDLWGQGTLVTVSS
VL: SFVLTQPASVQVNLGQTVSLTCTADTLSRSYASWYQQKPGQAPVLLIYRDTSRPSGVPDRFSGSSSGNTATLTISGAQAGDEADYYCATSDGIGSNYLWVFGGGTQLTVTG
notes: Fc-silenced (L234A/L235A/P329G) IgG1, lambda; Alexa Fluor 647-labeled in single-step flow cytometry
On to B2, for which the “Cells stained (%)” value in test [2] amounted to 99.8%.

B3: HW-101 chimeric rabbit-human IgG1 LA/LA/PG (antibody, V domains shown)
VH: QEQLVESGGRLVTPGTPLTLTCKASGFSLGKYDMSWVRQAPGKGLEWIGTIYAGSGSTWYASWAKGRFTISKTSTTVDLKMTSLTTEDTATYFCARDFLGVNSIWGPGTLVTISS
VL: SFVLTQPASVQVNLGQTVSLTCTADTLSRSYASWYQQKPDQAPVLLIHRDTSRPSGVPDRFSGSNSGNTATLTISGAQAGDEADYYCATSDGSGSNFHFVFGGGTQLTVTG
notes: Fc-silenced (L234A/L235A/P329G) IgG1, lambda; Alexa Fluor 647-labeled in single-step flow cytometry; Cluster C-97
For the molecule B3, the “mAb binding (MFI)” value in test [3] worked out at 6440. Moreover, the “Cells stained (%)” value in test [4] turned out to be 93.8%; in test [5] it was 94.3%. For the same molecule, in the test with CADM1 on RPMI-8226 cells, the “antibody-bound positive cells (%)” value was found to be 97.6%.

B4: HW-17 chimeric rabbit-human IgG1 LA/LA/PG (antibody, V domains shown)
VH: QSLGESRGRLVTPDETLTLTCTVSGIDLSSNAMSWVRQAPGEGLEWIGTINTGGRAYYASWAKGRFTISRTSTTVDLKMTSLTTEDTATYFCARERYSDGRAYDIWGPGTLVTISS
VL: SFVLTQPASVQVNLGQTVSLTCTADTLSRRYASWYQQKPGQAPVLLIYTDSNRPSGIPDRFSGSSSGNTATLTISGAQAGDEADYYCATDDGSGSIYQYVFGGGTQLTVTG
notes: as for B1
On to B4, for which the “Cells stained (%)” value in test [1] was determined as 1.25%.

B5: HW-70 chimeric rabbit-human IgG1 LA/LA/PG (antibody, V domains shown)
VH: QSLEESGGRLVTPGTPLTLTCTVSGFSLSSNAMSWVRQAPGKGLEWIGTIDGYGYTYYASWAKGRFTVSKTSTTVDLKITSPTTEDTATYFCAREIYLGSNFWGPGTLVTISS
VL: SFVLTQPASVQVNLGQTVSLTCTADTLSRRYASWYQQKPGQAPVLLIYRDTSRPSGVPDRFSGSSSGNTATLTISGAQAGDEADYYCATADGSGSSYQFVFGGGTQLTVTG
notes: as for B1
Regarding B5, the “Cells stained (%)” value in test [1] was determined as 0.87%.

B6: HW-97 chimeric rabbit-human IgG1 LA/LA/PG (antibody, V domains shown)
VH: QKQLVESGGRLVTPGTPLTLTCTVTGIDLSSHGMSWVRQAPGKGLEWIGVIYPSGSTWYASWARGRFTISKTSTTVDLKMTSLTTEDTATHFCARGDVGGADNNIWGPGTLVTVSS
VL: SFVLTQPASVQVDLGQTVSLTCTAETLSRSYASWYQQKPGQAPVLLIYRDTSRPSGVPDRFSGSSSGNTATLTISGAQAGDEADYYCATSDGSGSSYQYVFGGGTQLTVTG
notes: Fc-silenced (L234A/L235A/P329G) IgG1, lambda; Alexa Fluor 647-labeled in single-step flow cytometry; Prototype of cluster C-97
Take B6: in test [3], the “mAb binding (MFI)” value turned out to be 9600. Moreover, the “Cells stained (%)” value in test [4] amounted to 97.1%; in test [5] it was 98.1%. In the test with CADM1 on RPMI-8226 cells, the “antibody-bound positive cells (%)” value amounted to 98.8%.

B7: HW-1 chimeric rabbit-human IgG1 LA/LA/PG (antibody, V domains shown)
VH: QSLEESGGGLFKPTDTLTLTCTASGFSLGSSYAISWVRQAPGKELEWIGTIDSGRAYYARWAKSRSTITRNTNENTVTLKMTSLTAADTATYFCARDLIPTYSQDIWGPGTLVTISS
VL: SFVLTQPASVQVNLGQTVSLTCTADTLSRRYASWYQQKPGQAPVLLIYRDTSRPSGVPDRFSGSSSGNTATLTISGAQAGDEADYYCATSDGSGNSYQYVFGGGTQLTVTS
notes: Fc-silenced (L234A/L235A/P329G) IgG1, lambda; Alexa Fluor 647-labeled in single-step flow cytometry; Prototype of cluster C-1
For the molecule B7, the “Cells stained (%)” value in test [1] was determined as 1.2%.

B8: HW-25 chimeric rabbit-human IgG1 LA/LA/PG (antibody, V domains shown)
VH: QSLEESGGRLVTPGTPLTLTCTVSGFSLSSYAMGWVRQAPGKGLEWIGIIDSRGSTYYATWAKGRFTISKTSTTVDLKITSPTTEDTATYFCAREDSYYYDSFNLWGPGTLVTVSS
VL: SFVLTQPASVQVNLGQTVSLTCTADTLSRRYASWYQQKPGQAPVLLIYRDTSRPSGVPDRFSGSSSGNTATLTISGAQAGDEADYYCATSDGSGSSYQCVFGGGTQLTVTG
notes: as for B1
With B8, the “Cells stained (%)” value in test [1] was 0.87%.

B9: TH9-0022 (antibody, human IgG1, kappa, L234A L235A, V domains shown)
VH: QSLEESGGRLVTPGTPLTLTCTVSGFSLSSYAMNWVRQAPGKGLEWIGIINSYGSTYYASWAKGRFTISKTSTTVDLKITSPTTEDTATYFCARVTYDSYGYGYAPYGMDLWGPGTLVTVSS
VL: LVMTQTPSSTSNAVGGTVTIKCQASQSIGNVLAWYQQKPGQPPKLLIYAASTLASGVPSRVGGSRSGTEYTLTISGVQREDAATYYCLGSDSDSDIAFGGGTELEILR
notes: also called TH9-022; negative control
Turning to B9, in test [3], the “mAb binding (MFI)” value was 483. In addition, the “Cells stained (%)” value in test [5] was found to be 1.86%; in test [2], 2.62%.

B10: TH9-0022 (antibody, human IgG1, kappa, L234A L235A, V domains shown)
VH: QSLEESGGRLVTPGTPLTLTCTVSGFSLSSYAMNWVRQAPGKGLEWIGIINSYGSTYYASWAKGRFTISKTSTTVDLKITSPTTEDTATYFCARVTYDSYGYGYAPYGMDLWGPGTLVTVSS
VL: LVMTQTPSSTSNAVGGTVTIKCQASQSIGNVLAWYQQKPGQPPKLLIYAASTLASGVPSRVGGSRSGTEYTLTISGVQREDAATYYCLGSDSDSDIAFGGGTELEILR
notes: also called TH9-022; negative control IgG1
As to B10, in the test with CADM1 on RPMI-8226 cells, the “antibody-bound positive cells (%)” value came out at 3% and the binding result was “no binding”.
